Each block holds one substance with its values, some of them ahead of it.
Legend:
[1] = biological target: N-terminal tagged 3XFLAG artemin construct (A. fransciscina); test: native MS; intact complex; 200 mM ammonium acetate, 1-2 uM protein, Waters Synapt G2s-i
[2] = biological target: N-terminal tagged 3XFLAG artemin construct (A. fransciscina); test: native MS; 24mer isolated (manual fixed quad profile of 10,000), then collision induced dissociation (argon); released subunits observed; dimers are held by inter-subunit disulfides
[3] = biological target: N-terminal tagged 3XFLAG artemin construct (A. fransciscina); test: cryo-EM structure; single particle cryo-EM, 0.2-1.5 mg/ml protein on Quantifoil grids, 300 keV Titan Krios; C1 ab-initio then octahedral symmetry imposed
[4] = biological target: artemin with a C-terminal 6xHis tag (A. fransciscina); test: native gel or EMSA; Native PAGE of the protein after affinity purification and SEC
[5] = biological target: artemin with a C-terminal 6xHis tag (A. fransciscina); test: native MS; intact complex; 200 mM ammonium acetate, 1-2 uM protein, Waters Synapt G2s-i
[6] = biological target: artemin with a C-terminal 6xHis tag (A. fransciscina); test: native MS; 24mer isolated (manual fixed quad profile of 10,000), then collision induced dissociation (argon); released subunits observed; dimers are held by inter-subunit disulfides
[7] = biological target: artemin with a C-terminal 6xHis tag (A. fransciscina); test: cryo-EM structure; single particle cryo-EM, 0.2-1.5 mg/ml protein on Quantifoil grids, 300 keV Titan Krios; C1 ab-initio then octahedral symmetry imposed
[8] = biological target: fluorescent artemin-His (A. fransciscina); test: native MS; intact complex; 200 mM ammonium acetate, 1-2 uM protein, Waters Synapt G2s-i
[9] = biological target: fluorescent artemin-His (A. fransciscina); test: native MS; 24mer isolated (manual fixed quad profile of 10,000), then collision induced dissociation (argon); released subunits observed; dimers are held by inter-subunit disulfides

stoichiometry N [1]: 24 | stoichiometry N [2]: 2 | stoichiometry N [3]: 24
Substance: N-terminal tagged 3XFLAG artemin construct (natural protein)

stoichiometry N [4]: 24 | stoichiometry N [5]: 24 | stoichiometry N [6]: 2 | stoichiometry N [7]: 24
Substance: artemin with a C-terminal 6xHis tag (natural protein)

stoichiometry N [8]: 24 | stoichiometry N [9]: 2
Substance: fluorescent artemin-His (natural protein)

— PMC9742257
